Reference: the NTF2 design screens of Basanta et al. (2020)

test: protease stability score; higher = more stable; yeast display proteolysis, trypsin and chymotrypsin;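 further: relative to predicted unfolded state with 0 unfolded-like and 1 meaning tenfold more protease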

In order of falling protease stability score:
1. SEDKNAVHEIVERFLKAMLTGDEHILKTLLDPHVRLHIGDKSRVGMERVIHELIHIRIHELRVESMEMRLWDGRAEVHVFGEVRQRVDGQERNITTSIILHIEKIDGRWHLTQLQFIIS  2.53
2. DEHEELLRRLADEWFKSLLTGDEDRLLELADPNMRIRLLINGRDEKIHGWEELVRWFREIRFRSMDIDSFTLVNGKIQIRFKYRGRVNGQTHETRSEFLLIVIDGKVTHVEVRLE  2.46
3. DEEEEWARYILKKTMEAWLTGDEEIIRELLDPSTRLVIDGKEFHGMDEAQFLVREIRIDRIRTDMHDVKFQGDWIHVDGHIRVDETVNGRRRHKENRINIIVLKIDGRWYLHRYIIG  2.35
4. DEEHEMIQTHLRLFHEALLTGDEEELHRLLDPNVRVDIGDKHLHGREVVIHWMRQIRVKHLDLDLDHERSVNGRVDIKGTLRSDVIINGQRHKTSHTLHFHATKINGRWFIKEYIVD  2.06
5. SREEEIAHDVFREWIESFRTGDEDHRTEMMDPNARVFVNGVEFVGRDEIVRFFRHLRFDNSRHEIKSVRVVDGVAHIDSHLELHGTVNGQRDRVSYKLNVHTSKIDGKWVITEVKVK  2.03
6. SEDEEMSHNIAKMWVDALMTGDEEVLHNLADPRVRLDINGVIVHGREEFTKTMEDKLRHMRIHHINIRDIDIQGDYVRVDVRSDIFVDGKRHHVTTTLIIFKVNGRWLLHEIVVR  1.95
7. DKEEELIRELMEQFTHWLITGNWKKIVDMADPNVQILYNGQEFHGREELHKALQELLEKLGFKHIEIRRKHVVDGRVHLDGRSIINGRRFEVEYISVIINGVIKEIELRVE  1.95
8. SEEEEILHKMAEDNIQMLQTGDEETLKRLLDPNVRIHIGEFRTHGMEKLSHWLLHLRIRDIRIHSMRIIDGVADIDGTVEIEQGDKRHTVNMRIFIIVINGKNHSFIFRWH  1.76
9. DEDEKEYTEMVLILSRMIETGDEDSLRRLMDPHAKIHINGKEIHGRELWVHILHEHKRKLGYDNIRVNVHRIWVHGDKIRVHGHLHIDGKEHEVHVHIEKINGRWVLRHDEIR  1.68
10. DETKHHHDRLFEEEAKAIATGDWEKLKELLDPHVRFEVGNKEIHGMETVLEEIERDLKRLGVTKQEVRIVIDKVDIQGEKIVSDFTLRLHFDGVTIEHKVHVIEVKIDGRWLIQSIRIE  1.53
11. TELEEIFRLALEYLDKIWKTGDEHTLKRMFDPTTLLVVDGKRQHGMEFWREFLERYDHFHHLEVDDYHDVNGVLRLHGVIDGTVNGRRHEIHVHIVASKVNGKWRLKSVIFH  1.5
12. SEEDKIVHEMMERLLKNWQTGNWEEIEKLFDPNAKLLVDGVELHGREEMSRHWEEKLNQIDHLRIRIRDYRYFDGRLRVEGEEIHYVNGKDITREVEIRLQVINGVVESIEFHRR  1.42
13. SEEDRLHEEWIEESFKIWETGDEERFWKMVDPEYLFRLDIDGVHLESHGRENAREHFREQLSRLGIKYLDLHEIHLQGNKAILDVRVNFNGQERHVIIRLLIIDGRIKKREIEIR  1.41
14. DELDEQVEELARDIIRNWHTGDEERWEHLADPHVRVTIDGRLHIGREEAMKMLRHWLKRIDHITVNIRRIHVFNGRSEVHSELTMHVGDKNIHHHEIINIVIVDGRIHNQEIHLK  1.39
15. DERHKMIKDFAHLMLRARKTGDWDVMTRLFDPNTRVTQGDFELHGMESFSDWLHELHRQVPNVVEHDHSVDAFDGRVHLKTEERINGRILRIRIIIIVVDGKIKELRIEVD  1.37
16. SEIQHELSEMMKIVIHQFLTGDEEEFRHLVDPNVKFIFNGRLLIGWKSLSDFLKEHLERVDHWHVEIKRVRVYDGRLDISGRLRLVQGDKEHNLDVRMHLETIDGKITSVEIRVH  1.28
17. SEEDHLVDLMLKFLIESLKTGDEKTLRKLVDPNDKVVFNGRELHGRRALEYWLERFDHAHRFHIEDFTVQGDYMIVRVKLDGHVDGVRMETTIHLILVKYDGRWFVKMTIFN  1.26
18. SEDEEDLKRIVELLVRALKTGDEDLIRHLADPHVRLEVGDKEHHGREEYTRWAENFVERIDHVNIHIKRMTTIGNYLQMDVRLEERFDGRRVELRHYLIILKVDGRWVIKEVQIE  1.25
19. SRAEEEARHLLHLLIHSLNTGDEDTSRKMLDPHVRLIIDGREHHGREDLLWFLRFLGFDHVHHVELHDLHDVNGRIKVDVKFHMFVGDKLIKTTVIYFILKINGRWVFESIKVE  1.23
20. SEDEEMLRLAWEIHREILDTGDWKMFEELADPHTRIEVGEYINVGRETASKFILDNVRKIKNMRLHVHEHRTIDGKLEIHLRVNVNGQHRTLFLFASKFDGVWIITSVVVEIR  1.18
21. DEEEKDAKEIFRLSHDWWRTGDEMLIHMNFDPNVRLRIGDKSSHGREDVARIIVKVYKDFGVKHFEIREVDHQGEKIKLDGVSNFNGKEVKIEISSNKVNGVWVIKEVNIQ  1.11
22. DEETRATKRFLDEVLEARATGDWRTLTRNMDPHYRLEIGEKEVHGMEEVSHMVTEEMVRLGIKHSDLKIKDSRFYNGVLHLDGRLILEVNGVRLESDVTLVELKVNGRWQIRFERWE  1.08
23. DEEEEWLREVLRLIIEFLKTGDEDRLNEMADPTTRLRVGEFHHVGREEVHKFRKKKKDELGVDKIEFRLEDVRIQGDKATADGRVQYNGQEYKMRVIVVVVNGKVKSLTEEWE  1.07
24. SELEELWKRLLEEFVRLLHTGNEERILDLMDPHARVHTTFENHEFHDHGREAFHIMWEEFGINHLEFHRVRLFNGQVDITGSVNVNGREMETRIHLYIINGRVHQTIFRFR  0.996
25. SEEDEELKEWLEEFVHALKTGDENLLQRLADPNTRLIFDGRKFHGREEYRKNYEHLRHRIDHIHDEKSTTVHLINGKVTVESRLDGEINGKRIIFKTIIFYWKFDGRWFLRSEEIR  0.935
26. SEEERETKLMDEIYQRLFKTGDEHKFLRLADPHAKFHFDGREDHGMHNSTRIWKKLNDILGLDNIRFHVRDWTVFDGVAHVDGKLVINGKEIEVKLHVVVVNGRVKSVSIEHE  0.924
27. REEEEISKNIAELFEHTLRTGDEKLFLKLADPHVKNEQGEFDSVGREEWHRQFREILNKWGVDRIHSQERRFTDYDGRLEMHVEMRFNGKRVEVRMRVEKYDGRWILTELHIRIE  0.655
28. DEDMREAVKIAHRWLQHMTTGDEESIQSLADPHTKILFNGRELHGRHVITHLIREIRIKYTHLEHRDWRVVDGQLHLDFREDLRIEFDGQVRRIEIESHFMIIKINGRWFVHEVHLR  0.636
29. DELDEFREYWIRYVEEVFRTGDFEKHLSLMDPNARVLVDGKELHGREFLEVHMRRIKNATVRDVHHHDMEIQGDKVTLDVDVHVNVNGRDVDKHVLIISEKVNGRWISRSLEVR  0.628
30. SEEEESWRRIAEEELRIRKTGDEDRFRELHDPSVKIDWNGQIIVGWEELHEILRHIAERYPNLRFEVTHSDVIDGRVHIDGRLNVNGVTLEFHIESVIVNGRTKSIRIEVR  0.524
31. HEEEKSRKKEFEEYVRSVKTGDERLLTEMADPNARVHIGDKTLIGRELMHEMWHEQLKQIDVFHDIKTTHSEVQGDKIHMHVVEDIIIGDKRHTIRLRMIAWKFNGKWLVEEVRFE  0.435
32. DDEEHDARRAVELHNEIERTGDEHEMHRFADPDVRIFIGDKELHGRETWSKYLSHVLERLGINHLHITIEHLHLQGNKMRLHGTIRMKIGDKRYEIHVEVYITKINGRWHLHTIRND  0.363
33. DEDHEDSKHALEYMLDSVRTGDEHRMKRLVDPNMKVHWDGVDVVGRELAAKFLSQLRVHSVHLKDHKVFDGQLDLHVHIRQEWDGRHRETRTTFFILKINGRWLVTEVRVD  0.249
34. SEHEELLERIAEFVMKSWITGNEELDERLADPDARSIVNGKHLHGRELHSEFLRKLLEQLRIHHIHMTDRRVFDGRAIEHSVVHGEIDGVKVTVEVHIRVVVINGRLKSLRIEIR  0.149
35. SDLDKLAIKIAKILVKNLETGNEKMLEHLLDPHVKLHIDGVTFIGREEVNKWVKHELDEMRSRWEVHDRRTQGEYAHTDSRMYLHINGKDIEIEVTIIFNVVNGRVTFIEHRIH  0.084
36. DDIREDLLRIIKLFIDYLITGDWKWIEKLADPHVRVEIDVNGKEIERHGMDQLREHLKHLWDRYDHLEFRIDDFKAIGEYSTLNGTLIVVVDGQKKSVEVRVVIVIINGKIDEVRHEQN  -0.239
